Measurements: patent US20090298765A1 (Takeda / Millennium, published 2009)
Read-outs that look alike come from different tables or passages of the source. Non-standard residues stand in square brackets, D forms with d. No end group written: not given here. *: point of attachment. Propanoyl(3-indol-3-yl) = O=C(CCc1c[nH]c2ccccc12)*; Phe(F5) = N[C@@H](Cc1c(F)c(F)c(F)c(F)c1F)C(=O)O; Propanoyl(3-(3-pyridyl)) = O=C(CCc1cccnc1)*; Phe(4-NH2) = Nc1ccc(C[C@H](N)C(=O)O)cc1; Arg(Me) = CNC(=N)NCCC[C@H](N)C(=O)O; 4Pal = N[C@@H](Cc1ccncc1)C(=O)O; d4Pal = N[C@H](Cc1ccncc1)C(=O)O; Cha = N[C@@H](CC1CCCCC1)C(=O)O; azaGly = NNC(=O)O

Columns and labels:
[1] = target: T1, human OT7T175 (metastin receptor) (human, UniProt Q969F8 1-398); assay: cell-based or functional assay
[2] = target: human OT7T175 (metastin receptor) (human) (UniProt Q969F8); assay: cell-based or functional assay
[3] = target: human OT7T175 (metastin receptor) (human) (UniProt Q969F8); assay: competition with Cy-5 metastin (40-54) on hOT7T175-CHO cells, FMAT
[4] = target: T1, human OT7T175 (metastin receptor); assay: as above
[5] = target: T1, human OT7T175 (metastin receptor); assay: cell-based or functional assay; remark: listed apart in the source
[6] = target: T1, human OT7T175 (metastin receptor); assay: cell-based or functional assay; remark: listed apart in the source
[7] = target: T1, human OT7T175 (metastin receptor); assay: cell-based or functional assay; remark: listed apart in the source
[8] = target: T1, human OT7T175 (metastin receptor); assay: cell-based or functional assay; remark: listed apart in the source

T1 sequence (Q969F8 whole entry L364H): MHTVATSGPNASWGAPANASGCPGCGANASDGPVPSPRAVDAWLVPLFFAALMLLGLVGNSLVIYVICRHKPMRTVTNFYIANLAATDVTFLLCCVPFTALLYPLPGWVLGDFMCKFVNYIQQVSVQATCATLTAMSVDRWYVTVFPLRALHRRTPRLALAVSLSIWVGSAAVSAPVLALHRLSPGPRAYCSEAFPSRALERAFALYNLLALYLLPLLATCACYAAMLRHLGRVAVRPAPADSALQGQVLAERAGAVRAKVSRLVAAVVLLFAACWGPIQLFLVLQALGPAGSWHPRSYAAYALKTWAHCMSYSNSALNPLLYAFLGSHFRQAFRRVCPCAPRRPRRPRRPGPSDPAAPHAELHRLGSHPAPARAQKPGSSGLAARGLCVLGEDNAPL
Sequence of human OT7T175 (metastin receptor) (human) (Q969F8 whole entry L364H): as above

Row | Molecule | IC50 [4] [nM] | Ca ion level-increasing activity (FLIPR) [5] | Ca ion level-increasing activity (FLIPR, 40 s) [6] [EC50/MS10 EC50] | further results
1 | des(4-5)-MS10 (peptide) |  |  |  | Ca ion level-increasing activity (FLIPR) (x Metastin (1-54)) [1]: 1
2 | [D-Tyr1,D-Asn2,D-Trp3,Arg(Me)9]MS10 (peptide) |  |  |  | Ca ion level-increasing activity (FLIPR) (x Metastin (1-54)) [2]: 1
3 | [D-Tyr1,D-Asn2,D-Trp3,AzaGly7,Arg(Me)9]MS10 (peptide) |  |  |  | IC50 [3]: 49 nM; Ca ion level-increasing activity (FLIPR) (x Metastin (1-54)) [2]: 1
4 | des(4-5)-Boc-MS10 (peptide) |  |  |  | Ca ion level-increasing activity (FLIPR) (x Metastin (1-54)) [1]: 1
5 | LPNYNWNSFGLRF-NH2 (also called Compound No. 32) [Leu-Pro-Asn-MS10] | 25 | 10 x Metastin (1-54) |  | 
6 | YNWNSXGLRF (Nal(2)6; C-terminal amide, also called Compound No. 152) [[Nal(2)6]MS10] | 180 | 5 x Metastin (1-54) | 1.4 | 
7 | [dY]NWNSFGL[Arg(Me)]F-NH2 [[D-Tyr1,Arg(Me)9]MS10] |  |  | 1.6 | cell growth inhibition activity, IC50 [7]: 87 nM
8 | [dY]NWNSFGLRF-NH2 [[D-Tyr1]MS10] |  | 30 x Metastin (1-54) | 1.6 | 
9 | YNWNSFGLR[Phe(4-NH2)]-NH2 (also called Compound No. 131) [[Phe(4NH2)10]MS10] | 120 | 3 x Metastin (1-54) |  | 
10 | YNWNSFGLRX (Cha10; C-terminal amide, also called Compound No. 112) [[Cha10]MS10] | 370 | 2 x Metastin (1-54) |  | 
11 | YNWNSFGLRX (Nal(1)10; C-terminal amide, also called Compound No. 133) [[Nal(1)10]MS10] | 330 | 3 x Metastin (1-54) |  | 
12 | YN[dW]NSFGLRF-NH2 [[D-Trp3]MS10] |  | 30 x Metastin (1-54) | 1.6 | 
13 | [dY]N[Cha]NSFGL[Arg(Me)]F-NH2 (N-terminus assumed; SMILES CNC(=N)NCCC[C@H](NC(=O)[C@H](CC(C)C)NC(=O)CNC(=O)[C@H](Cc1ccccc1)NC(=O)[C@H](CO)NC(=O)[C@H](CC(N)=O)NC(=O)[C@H](CC1CCCCC1)NC(=O)[C@H](CC(N)=O)NC(=O)[C@H](N)Cc1ccc(O)cc1)C(=O)N[C@@H](Cc1ccccc1)C(N)=O, also called Compound No. 171) [[D-Tyr1,Cha3,Arg(Me)9]MS10] | 110 | 10 x Metastin (1-54) |  | 
14 | [dY][dN][4Pal]NSF[azaGly]L[Arg(Me)]F-NH2 (also called Compound No. 303) [[D-Tyr1,D-Asn2,Pya(4)3,AzaGly7,Arg(Me)9]MS10] | 0.5 |  | 6.9 | cell growth inhibition activity, IC50 [7]: 41.2 nM; Ca ion level-increasing activity (FLIPR) [8]: 5 x Metastin (1-54)
15 | [dY][d4Pal]NSF[azaGly]L[Arg(Me)]F-NH2 (N-terminus assumed; SMILES CNC(=N)NCCC[C@H](NC(=O)[C@H](CC(C)C)NC(=O)NNC(=O)[C@H](Cc1ccccc1)NC(=O)[C@H](CO)NC(=O)[C@H](CC(N)=O)NC(=O)[C@@H](Cc1ccncc1)NC(=O)[C@H](N)Cc1ccc(O)cc1)C(=O)N[C@@H](Cc1ccccc1)C(N)=O, also called Compound No. 305; KiSS1-305) [des(1)-[D-Tyr2,D-Pya(4)3,AzaGly7,Arg(Me)9]MS10] | 1.3 |  | 2 | cell growth inhibition activity, IC50 [7]: 8.94 nM; Ca ion level-increasing activity (FLIPR) [8]: 5 x Metastin (1-54)
16 | YNWNSFGLRX (Nal(2)10; C-terminal amide, also called Compound No. 110) [[Nal(2)10]MS10] | 24 | 20 x Metastin (1-54) |  | 
17 | {Propanoyl(3-(3-pyridyl))}-NSF[azaGly]L[Arg(Me)]F-NH2 (SMILES CNC(=N)NCCC[C@H](NC(=O)[C@H](CC(C)C)NC(=O)NNC(=O)[C@H](Cc1ccccc1)NC(=O)[C@H](CO)NC(=O)[C@H](CC(N)=O)NC(=O)CCc1cccnc1)C(=O)N[C@@H](Cc1ccccc1)C(N)=O, also called Compound No. 322) [des(1-3)-3-(3-Pyridyl)propionyl-[AzaGly7,Arg(Me)9]MS10] | 54 |  | 5.4 | cell growth inhibition activity, IC50 [7]: 71.9 nM; Ca ion level-increasing activity (FLIPR) [8]: 1 x Metastin (1-54)
18 | YNWNSFGLRW-NH2 (also called Compound No. 134) [[Trp10]MS10] | 110 | 30 x Metastin (1-54) | 0.5 | 
19 | YNWNSFGLRY-NH2 (also called Compound No. 109) [[Tyr10]MS10] | 23 | 20 x Metastin (1-54) | 2.6 | 
20 | YNWNSFGLR[Phe(F5)]-NH2 (also called Compound No. 111) [[Phe(F5)10]MS10] | 140 | 3 x Metastin (1-54) |  | 
21 | {Propanoyl(3-indol-3-yl)}-NSFGLRF-NH2 (SMILES CC(C)C[C@H](NC(=O)CNC(=O)[C@H](Cc1ccccc1)NC(=O)[C@H](CO)NC(=O)[C@H](CC(N)=O)NC(=O)CCc1c[nH]c2ccccc12)C(=O)N[C@@H](CCCNC(=N)N)C(=O)N[C@@H](Cc1ccccc1)C(N)=O, also called Compound No. 114) [des(1-3)-3-(3-Indolyl)propionyl-MS10] | 550 | 3 x Metastin (1-54) | 4.1 | 
22 | YNWNSXGLRF (Cha6; C-terminal amide, also called Compound No. 156) [[Cha6]MS10] | 49 | 2 x Metastin (1-54) | 0.9 | 
23 | YNWNSFGLXF (Har9; C-terminal amide, also called Compound No. 97) [[Har9]MS10] | 370 | 10 x Metastin (1-54) | 2.9 | 
24 | YNWNSXGLRF (Nal(1)6; C-terminal amide, also called Compound No. 151) [[Nal(1)6]MS10] | 300 | 1 x Metastin (1-54) |  | 
25 | YN[dW]NSFGL[Arg(Me)]F-NH2 (also called Compound No. 143) [[D-Trp3,Arg(Me)9]MS10] | 7.7 | 3 x Metastin (1-54) |  | 
26 | [dY]N[4Pal]NSF[azaGly]L[Arg(Me)]F-NH2 (also called Compound No. 286) [[D-Tyr1,Pya(4)3,AzaGly7,Arg(Me)9]MS10] | 17 |  |  | cell growth inhibition activity, IC50 [7]: 18.3 nM; Ca ion level-increasing activity (FLIPR) [8]: 2 x Metastin (1-54)
